Target: the molecule itself
Test: cryo-EM structure

B1: SARS-CoV S glycoprotein S2 subunit (from trypsin cleavage of the S ectodomain) (domain or fragment)
chain: STSQKSIVAYTMSLGADSSIAYSNNTIAIPTNFSISITTEVMPVSMAKTSVDCNMYICGDSTECANLLLQYGSFCTQLNRALSGIAAEQDRNTREVFAQVKQMYKTPTLKYFGGFNFSQILPDPLKPTKRSFIEDLLFNKVTLADAGFMKQYGECLGDINARDLICAQKFNGLTVLPPLLTDDMIAAYTAALVSGTATAGWTFGAGAALQIPFAMQMAYRFNGIGVTQNVLYENQKQIANQFNKAISQIQESLTTTSTALGKLQDVVNQNAQALNTLVKQLSSNFGAISSVLNDILSRLDKVEAEVQIDRLITGRLQSLQTYVTQQLIRAAEIRASANLAATKMSECVLGQSKRVDFCGKGYHLMSFPQAAPHGVVFLHVTYVPSQERNFTTAPAICHEGKAYFPREGVFVFNGTSWFITQRNFFSPQIITTDNTFVSGNCDVVIGIINNTVYDPLQPELDSFKEELDKYFKNHTSPDVDLGDISGINASVVNIQKEIDRLNEVAKNLNESLIDLQELGKYEQYIKWP
stoichiometry N: 3
